In publication PMC4829898:

Molecular target: recombinant soluble trimeric hemagglutinin (triHA) (influenza A virus A/Belgium/2009 (H1N1, 2009 pandemic) | Saccharomyces cerevisiae)
Experiment: SEC

Substance: recombinant soluble trimeric hemagglutinin (triHA)
- stoichiometry N: 3
